The series in a line: label from the status in PepcDB records.

For the sequence “MPVDKNLRDLEPGIHTDLEGRLTYGGYLRLDQLLSAQQPLSEPAHHDEMLFIIQHQTSELWLKLLAHELRAAIVHLQRDEVWQCRKVLARSKQVLRQLTEQWSVLETLTPSEYMGFRDVLGPSSGFQSLQYRYIEFLLGNKNPQMLQVFAYDPAGQARLREVLEAPSLYEEFLRYLARFGHAIPQQYQARDWTAAHVADDTLRPVFERIYENTDRYWREYSLCEDLVDVETQFQLWRFRHMRTVMRVIGFKRGTGGSSGVGFLQQALALTFFPELFDVRTSVGVDNRPPQGSADAGKRLEHHHHHH”, the protein production entry is on record as “not failed”.
To “MPVNSILGVFAKSPIKPLQEHMDKVYDCASLLVPFFEATITGNWDDAVQIRKQISLAEKQGDSLKREIRLTLPSGLFMPVERTDLLELLTQQDKIANKAKDISGRVIGRQLLIPQALQVPFIAYLQRCIDAVGLAQQVINELDDLLEAGFRGREVDFVAKMINELDIIEEDTDDLQIQLRRQLFALESELNPVDVMFLYKTIEWVGGLADLAERVGSRLELMLARV” belongs “not failed”; to “MPVQENSFKSYSEVITGSIIYGTIGVFLDRVQDMSVGSVLFCRLLFGVFMIFFYLLLSGSLEQLRLRRNRKYLLLLGFLNAVTGICYLSAIRHSGISTAVLLLYTAPVYVNLLAPAILGEKGSSKSFLPLILSVLGVLLITRPGEILFNINAGSEFIKGLLYGILSGISFGTTIILIRYLRHDYTGISQTFWLTGVSLLFMLPSALLTPASVFLKNFDTLFLFGITITFAAILYLRGISGIKAQTGSILALLEPVSGIFFDTVVLRSPFYISTLLGCVLILTAAYLVSRNGTGDQSLKTDNQPVL”, “failed”.
On to “MPVRVSLELLRVGHCRHCERMVRADGHWHAVEFPALSVLIRHPQRGALLYDTGYAAHFFRATDAWPERLYRLTTPVRLPAHETLGAQLSKRGVALDDIAWCLISHFHADHVGGLRDLPNARFMCSRADHQQLRSCSRVGGLRRALLPQLLPDDFDQRLQFADQAPQRALTGAWQGLGPAYDLFEDGSVLAVSLPGHVPGQMGLRVRDQHDREVLLCADAVWSSATWATLQWPAWPTRLLMHDWHAFQRTVHRLHALSHAHPELAILPSHCQPSLDRYQPEWR”, for which the protein production result is recorded as “failed”.
With “MPWIQVYTPVAGSLGLSALVAAIPLVVIFVCLALFKMKAHKAGLLALASAMLIAITVWGMPAKLAGLATAQGAAFGLFPVFYIVITTIFLYNITVKGGQFEIIRASLAGVTADRRLQALLIAFCFGAFIEGAAGFGTPVAIAGATLAGLGFQPLYAAGVCLVANTAPVAFGAIGIPIVALAGVMGYGDDGMMKLSTMVGRQLPFISVIIPFYVIMIMVGWKKTIEILPAIIVCGVTFALSQWATATYLGPYLPDVTASLASIIALVLLLRVWQPKTIYTFAHEAPVTGATEHHYTTGEVFRAWSPYLALTVMVLLWGIPSIKTVLDKSTVEIEVKGLHNMIVKKVAKPEDTLTKIAAASAEIDRQLTLLSPADPKQAAIAAKLMELKAFETQLAAVEQGLVGQGAVLTDERLKACDIVSKKMAETQKLCKELVKTAAVPANQFKPLDKALADHLPLKVAAKYKFNFMSAAGTAILIAAFLSALICGVGFADTFRILGKTLYDMRFPALTVASVLGLAYVMNASGMTNCLGLIFTKTGHWFPFIAPFLGWLGVFLTGSDTSSNVLFGGLQKATAEQLGISPILTGAANTSGGVMGKMISPQSLAVATAATGMVGEEGTLFRFTLKHSIFLTILVGIIVYLQAYVLQWMIP”, the protein production entry is on record as “failed”.
Turning to “MPYERKIINDPVFGFINIPKGLLYDIVRHPLLQRLTRIKQVGLSSVVYPGAQHTRFQHSLGAFYLMSEAITQLTSKGNFIFDSEAEAVQAAILLHDIGHGPFSHVLEDTIVQGVSHEEISLMLMERMNKEMNGQLSLAIQIFKDEYPKRFLHQLVSGQLDMDRLDYLRRDSFYTGVTEGNIGSARIIKMLDVADDRLVIESKGIYSIENFLTARRLMYWQVYLHKTSVAYERMLISTLLRAKELASQGVELFASPALHFFLYNDINHTEFHNNPDCLENFIQLDDNDIWTALKVWSNHPDKVLSTLSLGMINRNIFKVENSAEPIGEDRIKELTLQISQQLGITLSEANYFVSTPSIEKNMYDPADDSIDIIYKDGTIKNIAEASDMLNISLLSKKVKKYYLCYQRLHR”, the protein production result is “not failed”.
To “MPYFLIHNKNDNVGVAIADIKTGQEVEGIYIEDMTQGPKIKAISDIPLGHKIALKDIRQSDIVIKYGRPIGSAIKDIKVGEHVHVHNIRSNRWGKWKNQ” belongs “not failed”.
With “MPYTLQHLESEAALAASFDLMRVLRPHLTSPAAYVAQWARQTEQGYRLLAAWDAERIVGLAGYRELENLLYGRFIYVDDLVVSPDLQRSGLGARLLSAVRDEAVQRQCEHFVLDTGLHMPLAQRFYFRQGLLARGMHFTQRLE” the entry was “failed”; with “MQAGQVATNDLTISGIVNTVPASAVFAREANPVKVLNVKNTGDETLSNISIAVYASDVSSGTVPVDTTTIASLAGDATTTVTLIDPTIRDLEGGTVTYTAVVDPDNLIAETDETNNNKSSLEHHHHHH”, “failed”; with “MQAKSEAKLAIGVIGCGNISMTYLRNAALFGGIELRACADISADMAALRAKEYGIQALGVDALLSDPEIDLVLNLTIPAAHFDISLSALSAGKHVFTEKPLATSAGDGRRLVAEAAKRGVLLGSAPDTFLGAAGRRARRLMDEGAIGRPVTGTAFMMGRGMEHWHPNPQFYYQPGGGPVFDMGPYYLTMLVNLLGPVARVMAMATRGQEERLITAEGPFKNTTFKVGTPTNVLSLLEFRSGATVTFGASWDVFKHSNHPIELHGTEGSLRLPDPDTFGGTVSLSERGADWKDFAGEGELYGARNWPYAAPDRANYRMLGVADLVRSLKTGAVPRASGNLALHVLEIMEAILHSGETKSAVAIAGDVVQPALLTEDEANSLLA”, “failed”.
To “MQAQDATQLLEGVPLPLVLIGPDERIRAANAPAQRLFGAASVARHYVMAMRQPALLDAIEGAIRLDRPGRARYIITGPSREVTYRATVTPVRIHGESCALCAFEDITEQEQMGAIRRDFVANVSHELRTPLTALLGFIETLQGAARDDPAARSRFLGIMAREAGRMNRLVQDLLSLSRVESEERVRPKTPVDVTAVIGQAIAALRPMAEAAGVEIQRQGEAGPILLPGDPDQLTQVFHNLIENAVKYGASGKLVTVGISRDAEGLARLGPAVRIEVVDRGEGIDAIHLPRLTERFYRVDNHRSREKGGTGLGLAIVKHIVNRHRGRFLIESELGQGSRFIVTLPLA” belongs “failed”.
In the case of “MQAVRLFQGYLWHPRALALDLKALLPGEVAGARLLWDEVPPPTPFFEDGTPTHTQRFYQLTLLVLTEEPPEALKPLAEEAAEALGEVLEGLPPEVGWLLLEDLRPL”, the protein production result is given as “not failed”.
With “MQAYIDRIGDFIQANQDWAGPITFLLTFGESMVLVGLLIPATALMLLTGGLIGAGTLSPWGVLAWGIAGAIAGDAVSYALGRWLGPGVMRRWPLNTQRSAVARARLFFYRYGFASVLIGRFLGPIRSTIPTVAGIMGMHHLRFQLANVLSAVAWLPLMLAPGYITARGLGAMDNAQHIGLAAGMGASVLIGCWLLVAVMRKRRQPARANRRP” the entry was “not failed”.
With “MQCNICEVRCEINKHSTGRCGTYVSTGNTITQYPGMGYMGAYPISIEEVPLHHFYPSGKFLQIFSKGCNFQCPGCAARMPASSEPSTQQASLSPSEVVKRALKQECLGVVSTLNDPVANYYLFRDLAIQAQEKSLLVGCSTNCYFTSETLEEFGQLVDFVNVGIKGYSDRGYRNCGVTSSAPVFRNISRLFDMGVHVETSIAYSRGNEEDVIKVAEAVSDISPTIPLHVMRFLPFGYAPIELEPSIGEAEKICSDLRRYLDFVYLFNSPGTELLNTYCPECGRLLIEREFHRPFGSRLVKPWLSHKCSCGCSIPVQGKAPTEGFSEAGLMDSYSISQAFSMVHAVLTCLGVLDDYKLMDIWGEDKLMDVWSKVSNPKTLMQIHNMIRQPYSYLEFIKFIAEKANMPEKGEELVSFIHKRLQIVQNLSAGKSSYYVYYCMGSPFFALNAGRMENNLVTFSGGVSINKQLQKEGKLGVSVSPSFINEHNPGVIFVSGFLSRPLDEFYALCQKYGIHADAVTQHRVYEIPPSWDFGSPRWILGLMYITDKLHPGKLEVDLKKEADDFYLQFYGMRFKEARPNRSFHRPSSGIWPHTQTLYNYFEMEVPNQDSTKNFGNEITQPFNILPTCKIKLKE” the entry was “failed”; with “MQCPIEDRLAIQDLMIAYAHAVDTVSDIDAVLDVFTEDAVFDLSGIGLTPQVGHAGIREFFTNVFANMSHHAHYLTNFAVTGYEGDTASMRAYVIGMGVGKDGRAVTVNGRYFFEVRRTEKGWKATRYTMDFLMPLSGTLDNAK”, “not failed”; with “MQDHIISFTAGILSVLSPCILPVIPVIFSESLIGNRKERFLFLSGFSSLFLFTIILTAIFTAAVNYYLLYLRVPASIMLIIMGLLVLSEKPLISIRTPPAENHVLMGLLTAIAWTPCYSPYLIGVIAYSAYTGIPGALVNMALYTLGLTITLIAVTLLAEPVLRRLLRGSRDIRRASGVLIVVAGIYMLYQLIPLP”, “failed”.
With “MQDLIKQYNTTLRQLREAQKDAKEEDVKVLTDMISDITYSLEWMKKARRPGNRRGVERLAAYQRERACDPLLMQRYFRSMDDNLYEWDNHQQEHSIGEWDKVRLEDALSLLTEREKEVYLMSRGYCLTYREIARYLDITCSTVQSMIERAEKKIARQVNESLFCNCG” the entry was “failed”; with “MQDSKIPPFSEAKRMKIPTPKQPLTQLPPRIGKKVSNRSKSNQVHAISHQLEMSPNSDSSPGNEYRALRRKYLLLEEDSFALERELKEAEDEVKALEDEKLELLDKLVVMEGLVDP”, “failed”.
As to “MQDVLVIFAFFIILLSIVIALIKDLSSWVYITILLAIASWLLLFPQILSPYVVGIDAHFEHIIAEETLRTGHWDPDLSGNIVNAALSITILTPFISIVSGIPLDWVLKIILTIYPLISIPIIWKSNIHILSFSNRESFLSLLLLIGTSSFMLISVYGRQEVGLFSGLVLLYFLHFKKSSVQLSIVLIFLVIGLIFSHYSTAIILIITYAISSLFLYLFQRDKCSMRLVLFSIVFMVFWLILIVYASMASISHSFNFIYLSILDWATENSSIVVEQQLNPTFYNIFQSLNYVINIFIIIFLVIGTSYLVYSRVVKSKLESEENKKYFIFAFLSSIYILLSVLPGFSSVYNAERIYLTTLYLFSGFSLIGFKRVFVYIVTFFTKFSPIYLKKSNKYIFVVFSFFVLVHFVLQVGILPMLYYGDTNSKYFGDISEDRHYTLEEEVYAVNWLQGINNNNRIYTDFYGRGRLPLRSYGNIPTSQIVDLKEIGPTTLNLRNIIFYQQKKELNDEVSSKNFEQIEEINNFLQKYGSTLYNSGMTEVKVINLNS”, the protein production entry is “failed”.
With “MQEIIIQVMNQFGYFGVAFLIMIENIFPPIPSEVILTFGGFMTTYSELGIIGMIIAATIGSVLGALILYFVGRLLSVERLEKLVSGRLGKVLRLKPEDITKAEKWFLKRGYATIFFCRFIPLIRSLISIPAGSAKMKLPSFLILTTLGTLIWNIVLVCLGAALGDNWEMIAGILDSYSSVVVVILGIIFILAILIFVKKRFFPKNKNYSSDTEK” the entry was “not failed”; with “MQFLPILFVLLASGSFLSYTLSSYAIGNGTANIYHYVLNATSTGTEYNVSVFLNWSYSNLYEYVNKYDYSTFHKNFQVPDLYYIFYHSNPSTLAYILLFNNVTLTTYNLGGNQIPAIKFYNGDNYLTVSAQYGVMLQGFAKNYAGPSAGTLNVSISLNSYKNLPSFVSNANMYTLNVSFMPNPSALSYTLYLVSPEAKISGSNMYVSKEISIAYLSILSKGFTTIIIPSAYSIVRPIGEVIINQTNYYYFYLNGTLTYYGTYFTPKYYNSTTPFTIDTIGKYIVIFFPTGGNITVFLNNGNNPLYGVKVTGETGNKNTPLSLYLIIIGVVIVLVVAIIVLRFRKVF”, “failed”.

Values taken from a protein production outcome set (Wang et al. 2014).
